This is an account of results in US20250223330A1 (OUTPACE BIO, published 2025).

Where a chain is given by its changes, count along the chain named.

B1: Designed Cytokine No. 153 (designed binder)
chain: APTSSSTKKTQLQLEHLLLDLQMILNGINNMNADPELVEFLNRWITFCQSIISTGSVDPEELAKELQKLEEELKPLEEVLNLAQSKNFHLRPRDLISNINVIVLELKGSGSGNWSHPQFEK
notes: also called Design 3
B2: Designed Cytokine No. 169 (designed binder)
chain: APTSSSTKKTQLQLEHLLLDLQMILNGINNMNADPELVEFLNRWITFCQSIISTGSLEDLKHLQALEEELKPLEEVLNLAQSKNFHLRPRDLISNINVIVLELKGSGSGNWSHPQFEK
notes: also called Design 1
B3: SEQ ID NO 33 (designed binder)
chain: APTSSSTKKTQLQAEHLLLDLQMILNGINNYKNPKLTRMLTFGGTATIVEFLNRWITFCESGADEEAAKSLQALEEELKPLEEVLNLAQSKNFHLRPRDLISNINVIVLELKGS
notes: ELISA captured STII-tagged protein from supernatant; also called Designed Cytokine No. 33
B4: SEQ ID NO 21 (designed binder)
chain: APTSSSTKKTQLQLEHLLLDLQMILNALKKLNINSPMQEFLNRWITFCESNTEDALKHLQALEEELKPLEEVLNLAQSKNFHLRPRDLISNINVIVLELKGS
notes: ELISA captured STII-tagged protein from supernatant; also called Designed Cytokine No. 21
B5: SEQ ID NO 30 (designed binder)
chain: B4 chain with E65R, L75R
notes: ELISA captured STII-tagged protein from supernatant; also called Designed Cytokine No. 30
B6: SEQ ID NO 27 (designed binder)
chain: APTSSSTKKTQLQLEHLLLDLQMILNGINNMNADPELVEFLNRWITFCQSLIKKGSNEDLKHLQALEERLKPLEEVLNRAQSKNFHLRPRDLISNINVIVLELKGS
notes: ELISA captured STII-tagged protein from supernatant; also called Designed Cytokine No. 27
B7: SEQ ID NO 34 (designed binder)
chain: APTSSSTKKTQLQLEHLLLDLQMILNGINNYKNPKLTEIDPKLVEFLNRWITFCQSAIKSGSNTAKELQALEEELKPLEEVLNLAQSKNFHLRPRDLISNINVIVLELAGS
notes: ELISA captured STII-tagged protein from supernatant; also called Designed Cytokine No. 34
B8: SEQ ID NO 20 (designed binder)
chain: APTSSSTKKTQLQLEHLLLDLQMIANALNKLGIESPFLNRWITFCQSVISASDDTREELKHLQALEEELKPLEEVLNLAQSKNFHLRPRDLISNINVIVLELKGS
notes: ELISA captured STII-tagged protein from supernatant; also called Designed Cytokine No. 20
B9: SEQ ID NO 35 (designed binder)
chain: APTSSSTKKTQLQLEHLLLDLQMILNGINNYKNPKLTEIDPKLVEFLNRWITFCQTIINGGESATLKHLQALEEELKPLEEVLNLAQSKNFHLRPRDLISNINVIVLELKGS
notes: ELISA captured STII-tagged protein from supernatant; also called Designed Cytokine No. 35
B10: SEQ ID NO 36 (designed binder)
chain: B9 chain with T56S, G61D, A64F, T65S
notes: ELISA captured STII-tagged protein from supernatant; also called Designed Cytokine No. 36
B11: SEQ ID NO 28 (designed binder)
chain: APTSSSTKKTQLQLEHLLLDLQMILNGAEVDPKIKEFLNRWITFCQSVIKANKDTREELKHLQALEERLKPLEEVLNRAQSKNFHLRPRDLISNINVIVLELKGS
notes: ELISA captured STII-tagged protein from supernatant; also called Designed Cytokine No. 28
B12: SEQ ID NO 19 (designed binder)
chain: APTSSSTKKTQLQLEHLLLDLQMIANALNKLGIESPFLNRWITFCQSNHEDAAKHLQALEEELKPLEEVLNLAQSKNFHLRPRDLISNINVIVLELMGS
notes: ELISA captured STII-tagged protein from supernatant; also called Designed Cytokine No. 19
B13: SEQ ID NO 17 (designed binder)
chain: APTSSSTKKTQLQLEHLLLDLQMILNGMNNGNADPELVEFLNRWITFAQDGSADLKHLQALEEELKPLEEVLNLAQSKNFHLRPRDLISNINVIVLELKGS
notes: ELISA captured STII-tagged protein from supernatant; also called Designed Cytokine No. 17
B14: SEQ ID NO 18 (designed binder)
chain: B13 chain with M28I, G31M
notes: ELISA captured STII-tagged protein from supernatant; also called Designed Cytokine No. 18
B15: SEQ ID NO 38 (designed binder)
chain: APTSSSTKKTQLQLEHLLLDLQMILNGINNMNADPELVEFLNRWITFCQTAISTGKDNLKHLQALEEELKPLEEVLNLAQSKNFHLRPRDLISNINVIVLELKGS
notes: ELISA captured STII-tagged protein from supernatant; also called Designed Cytokine No. 38
B16: SEQ ID NO 32 (designed binder)
chain: APTSSSTKKTQLQLEHLLLDLQMILNGINNYKNPKLTRMLTFGGTATIVEFLNRWITACQREADPEALQALEEELKPLEEVLNLAQSKNFHLRPRDLISNINVIVLELMGS
notes: ELISA captured STII-tagged protein from supernatant; also called Designed Cytokine No. 32
B17: SEQ ID NO 29 (designed binder)
chain: APTSSSTKKTQLQLEHLLLDLQMILNALNKLNINDHIVEFLNRWITFCQSATSDPDLLKHLQALEERLKPLEEVLNRAQSKNFHLRPRDLISNINVIVLELKGS
notes: ELISA captured STII-tagged protein from supernatant; also called Designed Cytokine No. 29
B18: SEQ ID NO 37 (designed binder)
chain: APTSSSTKKTQLQLEHLLLDLQMILNGINNYKNPKLTKLDPSLVEFLNRWITFCQSATSDPDLLKHLQALEEELKPLEEVLNLAQSKNFHLRPRDLISNINVIVLELKGS
notes: ELISA captured STII-tagged protein from supernatant; also called Designed Cytokine No. 37
B19: SEQ ID NO 22 (designed binder)
chain: APTSSSTKKTQLQLEHLLLDLQMILNLAEVDPTMKEFLNRWITFCESNSESALKHLQALEEELKPLEEVLNLAQSKNFHLRPRDLISNINVIVLELKGS
notes: ELISA captured STII-tagged protein from supernatant; also called Designed Cytokine No. 22
B20: SEQ ID NO 26 (designed binder)
chain: APTSSSTKKTQLQLEHLLLDLQMILNFPVDSEMVEFLNRWITFAEKGTEDALKELQALEEELKPLEEVLNLAQSKNFHLRPRDLISNINVIVLELKGS
notes: ELISA captured STII-tagged protein from supernatant; also called Designed Cytokine No. 26
B21: SEQ ID NO 23 (designed binder)
chain: B20 chain with E45Q, T48D, D50S, E54H
notes: ELISA captured STII-tagged protein from supernatant; also called Designed Cytokine No. 23
B22: SEQ ID NO 31 (designed binder)
chain: B20 chain with E61R, L71R
notes: ELISA captured STII-tagged protein from supernatant; also called Designed Cytokine No. 31
B23: SEQ ID NO 25 (designed binder)
chain: B20 chain with L52N
notes: ELISA captured STII-tagged protein from supernatant; also called Designed Cytokine No. 25
B24: SEQ ID NO 24 (designed binder)
chain: APTSSSTKKTQLQLEHLELDLQMILNLAEVDPTMKEFLNRWITEAQSSNATLKSLQALEEELKPLEEVLNLAQSKNFHLRPRDLISNINVIVLELKGS
notes: ELISA captured STII-tagged protein from supernatant; also called Designed Cytokine No. 24
B25: Designed Cytokine No. 39 (designed binder)
chain: APTSSSTKKTQLQLEHLLLDLQMILNGINNMNADPELVEFLNRWITFCQSLIKKGSNEDLKHLQALEEELKPLEEVLNLAQSKNFHLRPRDLISNINVIVLELKGSGSGGSGNWSHPQFEK
B26: Designed Cytokine No. 40 (designed binder)
chain: B25 chain with M31G

One assay has as its target T1, IL2Rb/g-Fc (UniProt P14784 27-239; P31785 23-262, limits assumed).
T1 construct: Captured at 12 ug/mL on ProA tips; also called IL-2/15Rβγ; IL-2Rβγ; not shown: Fc part
T1 sequence (looked up) 1: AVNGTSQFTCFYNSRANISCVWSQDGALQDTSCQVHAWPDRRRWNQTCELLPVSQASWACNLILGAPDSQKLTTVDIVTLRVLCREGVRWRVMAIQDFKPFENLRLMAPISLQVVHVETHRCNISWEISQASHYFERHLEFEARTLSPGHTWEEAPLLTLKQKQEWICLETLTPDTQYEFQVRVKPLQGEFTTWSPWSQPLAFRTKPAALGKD
T1 sequence (looked up) 2: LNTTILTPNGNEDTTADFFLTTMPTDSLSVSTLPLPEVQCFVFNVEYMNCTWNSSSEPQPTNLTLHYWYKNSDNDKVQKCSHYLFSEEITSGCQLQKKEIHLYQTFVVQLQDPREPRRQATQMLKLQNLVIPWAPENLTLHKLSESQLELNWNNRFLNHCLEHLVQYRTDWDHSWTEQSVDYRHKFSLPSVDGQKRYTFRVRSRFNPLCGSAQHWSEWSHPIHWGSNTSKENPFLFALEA
The experiment in a line: Octet (BLI), IL2Rb/g-Fc captured on ProA tips, cytokine in solution.
Settings: not given
With B1, the Kd stood at 3.9 nM.
Same read-out and setting: the figure for B2 is about 1.6 nM.

For another assay, the target named is T2, CD25-Fc (UniProt P01589 22-213, limits assumed).
T2 construct: Bought reagent; The same stock (100 ug/mL aliquots) was used as CD25-Fc in the ELISA and as IL2Ra-Fc on ProA tips in the Octet assay; also called IL2Ra-Fc; CD25 (IL2Ra); not shown: Fc part of the bought fusion
T2 sequence (looked up): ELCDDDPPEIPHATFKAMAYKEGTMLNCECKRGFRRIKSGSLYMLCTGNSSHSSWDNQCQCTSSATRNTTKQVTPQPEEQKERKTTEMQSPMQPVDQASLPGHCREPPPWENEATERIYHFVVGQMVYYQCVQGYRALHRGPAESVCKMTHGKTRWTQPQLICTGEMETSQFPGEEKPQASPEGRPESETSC
Kind of assay: ELISA, STII-tagged cytokine captured on Strep-Tactin plate, CD25-Fc detected (FIG. 5A).
Settings: not given
(In general: ELISA stands for enzyme-linked immunosorbent assay.)
For the molecule B3, the binding result is on record as “no binding”.
Still for that read-out and setting: the entry for B4 is “no binding”; for B5 it is “no binding”; for B6 it is “no binding”.
The same measure, in the same setting: as for B7, the entry is “no binding”; as for B8, “no binding”; as for B9, “no binding”.
Same read-out and setting: as for B10, the entry is “no binding”; as for B11, “no binding”.
Regarding B12, the binding result is “no binding”.
In the case of B13, the binding result is listed as “no binding”.
Consider B14, for which the binding result is on record as “no binding”.
For the molecule B15, the binding result is recorded as “no binding”.
The same measure, in the same setting: as for B16, the entry is “no binding”; as for B17, “no binding”; as for B18, “no binding”.
On the same count and under the same terms, the entry for B19 is “no binding”; for B20 it is “no binding”; for B21 it is “no binding”.
On to B22, for which the binding result is given as “no binding”.
The same measure, in the same setting: the entry for B23 is “no binding”.
B24: the binding result is on record as “no binding”.

The next assay deals with T2, CD25-Fc. The experiment in a line: ELISA, STII-tagged cytokine captured on Strep-Tactin plate, CD25-Fc detected.
Settings: not given
B25: the binding result is given as “no binding”.
The same measure, in the same setting: the entry for B26 is “no binding”.

The target of a further assay is CD25-Fc (UniProt P01589). The experiment in a line: BLI. Conditions: ligand.
The molecule WT IL-2 (from UniProt P60568 21-153) came in with a Kd of 20 nM.

The term Kd denotes the equilibrium constant for the complex coming apart.
